Experimental data from patent JP2005320353A (dated 2005).

target: T1, ヒトPTHrP(1-34) (human); assay: ELISA on plate-coated human PTHrP(1-34)
T1 construct: Synthetic peptide, bought (Peninsula; ペプチド研究所); Coated on the plate in the ELISA; also called human parathyroid hormone related peptide (1-34)

Binder | binding result
ヒト型化H鎖バージョン"a"とキメラL鎖を組み合わせた抗体 (antibody, V domains shown, Humanised H chain version a with human Cγ1; The chimeric L chain has the mouse V region) VH: QVQLVESGGGVVQPGRSLRLSCAASGFTFSSYGMSWVRQAPGKGLEWVATISSGGSYTYYPDSVKGRFTISRDNSKNTLYLQMNSLRAEDTAVYYCARQTTMTYFAYWGQGTLVTVSS VL: QLVLTQSSSASFSLGASAKLTCTLSSQHSTYTIEWYQQQPLKPPKYVMDLKQDGSHSTGDGIPDRFSGSSSGADRYLSISNIQPEDEAMYICGVGDTIKEQFVYVFGGGTKVTVLG | binds
ヒト型化#23-57-137-1抗体 (H鎖バージョン"a"、L鎖バージョン"l") (antibody, IgG1, V domains shown, Human Cγ1 (IgG1) and human lambda C region; Expressed in COS-7 cells; also called hMBC1HcDNA/pCOS1 + hMBC1Llλ/pCOS1) VH: QVQLVESGGGVVQPGRSLRLSCAASGFTFSSYGMSWVRQAPGKGLEWVATISSGGSYTYYPDSVKGRFTISRDNSKNTLYLQMNSLRAEDTAVYYCARQTTMTYFAYWGQGTLVTVSS VL: QLVLTQSPSASASLGASVKLTCTLSSQHSTYTIEWYQQQPEKGPKYVMDLKQDGSHSTGDGIPDRFSGSSSGAERYLTISSLQSEDEADYYCGVGDTIKEQFVYVFGGGTKLTVLG | binds
ヒト型化#23-57-137-1抗体 (H鎖バージョン"a"、L鎖バージョン"q") (antibody, IgG1, V domains shown, Human Cγ1 (IgG1) and human lambda C region; Expressed in COS-7 cells for the ELISA; also made in CHO cells; also called hMBC(q); hMBC1HcDNA + hMBC1Lqλ) VH: QVQLVESGGGVVQPGRSLRLSCAASGFTFSSYGMSWVRQAPGKGLEWVATISSGGSYTYYPDSVKGRFTISRDNSKNTLYLQMNSLRAEDTAVYYCARQTTMTYFAYWGQGTLVTVSS VL: QLVLTQSPSASASLGASVKLTCTLSSQHSTYTIEWYQQQPEKGPKYLMDLKQDGSHSTGDGIPDRFSGSSSGAERYLTISSLQSEDEADYICGVGDTIKEQFVYVFGGGTKLTVLG | binds
ヒト型化#23-57-137-1抗体 (H鎖バージョン"a"、L鎖バージョン"m") (antibody, IgG1, V domains shown, Human Cγ1 (IgG1) and human lambda C region; Expressed in COS-7 cells; also called hMBC1HcDNA/pCOS1 + hMBC1Lmλ/pCOS1) VH: QVQLVESGGGVVQPGRSLRLSCAASGFTFSSYGMSWVRQAPGKGLEWVATISSGGSYTYYPDSVKGRFTISRDNSKNTLYLQMNSLRAEDTAVYYCARQTTMTYFAYWGQGTLVTVSS VL: QLVLTQSPSASASLGASVKLTCTLSSQHSTYTIEWYQQQPEKGPRYLMDLKQDGSHSTGDGIPDRFSGSSSGAERYLTISSLQSEDEADYYCGVGDTIKEQFVYVFGGGTKLTVLG | binds

Further lines, results first:

binding result | Binder
binds | ヒト型化#23-57-137-1抗体 (H鎖バージョン"a"、L鎖バージョン"j") (antibody, IgG1, V domains shown, Human Cγ1 (IgG1) and human lambda C region; Expressed in COS-7 cells; also called hMBC1HcDNA/pCOS1 + hMBC1Ljλ/pCOS1) VH: QVQLVESGGGVVQPGRSLRLSCAASGFTFSSYGMSWVRQAPGKGLEWVATISSGGSYTYYPDSVKGRFTISRDNSKNTLYLQMNSLRAEDTAVYYCARQTTMTYFAYWGQGTLVTVSS VL: QLVLTQSPSASASLGASVKLTCTLSSQHSTYTIEWYQQQPEKGPKYLMDLKQDGSHSTGDGIPDRFSGSSSGAERYLTISSLQSEDEADYYCGVGDTIKEQFVYVFGGGTKLTVLG
binds | ヒト型化#23-57-137-1抗体 (H鎖バージョン"a"、L鎖バージョン"t") (antibody, IgG1, V domains shown, Human Cγ1 (IgG1) and human lambda C region; Expressed in COS-7 cells; also called hMBC1HcDNA/pCOS1 + hMBC1Ltλ/pCOS1) VH: QVQLVESGGGVVQPGRSLRLSCAASGFTFSSYGMSWVRQAPGKGLEWVATISSGGSYTYYPDSVKGRFTISRDNSKNTLYLQMNSLRAEDTAVYYCARQTTMTYFAYWGQGTLVTVSS VL: QLVLTQSPSASASLGASVKLTCTLSSQHSTYTIEWYQQQPEKGPRYVMDLKQDGSHSTGDGIPDRFSGSSSGAERYLTISSLQSEDEADYICGVGDTIKEQFVYVFGGGTKLTVLG
binds | ヒト型化#23-57-137-1抗体 (H鎖バージョン"a"、L鎖バージョン"o") (antibody, IgG1, V domains shown, Human Cγ1 (IgG1) and human lambda C region; Expressed in COS-7 cells; also called hMBC1HcDNA/pCOS1 + hMBC1Loλ/pCOS1) VH: QVQLVESGGGVVQPGRSLRLSCAASGFTFSSYGMSWVRQAPGKGLEWVATISSGGSYTYYPDSVKGRFTISRDNSKNTLYLQMNSLRAEDTAVYYCARQTTMTYFAYWGQGTLVTVSS VL: QLVLTQSPSASASLGASVKLTCTLSSQHSTYTIEWYQQQPEKGPRYVMDLKQDGSHSTGDGIPDRFSGSSSGAERYLTISSLQSEDEADYYCGVGDTIKEQFVYVFGGGTKLTVLG
